Data on 125 sequences can be found in the supplement of paper PMC9112550, “Optimization of the antimicrobial peptide Bac7 by deep mutational scanning” (BMC Biology, 2022).
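Further: peptides expressed intracellularly from a pBAD plasmid library in pooled LB shake-flask culture, induced with 0.3% L-arabinose, DNA abundance read by NGS, three biological replicates, DESeq2 with apeglm shrinkage.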

The series concerns Escherichia coli TOP10. The series is described as follows: shrunken log2 fold change of peptide-encoding DNA abundance (4.5 h post-induction vs induction); higher = less antimicrobial activity (less host growth inhibition). The following applies: time post-induction: 4.5 h; library: site-saturation at positions 5, 18, 19, 20.
Take RRIRERPPRLPRPRPRPGTYPRP: the “shrunken log2 fold change” value is -0.478.

For the sequence RRIRGRPPRLPRPRPRPMMAPRP, the “shrunken log2 fold change” value amounted to 1.38.

For RRIRARPPRLPRPRPRPFFMPRP, the “shrunken log2 fold change” value was -0.0309.

In the case of RRIRFRPPRLPRPRPRPPWMPRP, the “shrunken log2 fold change” value was determined as 0.355.

As for RRIRERPPRLPRPRPRPWPQPRP, the “shrunken log2 fold change” value is -0.0216.

For RRIRKRPPRLPRPRPRPHQDPRP, the “shrunken log2 fold change” value is 0.0154.

For RRIRKRPPRLPRPRPRPPVEPRP, the “shrunken log2 fold change” value is 0.13.

As to RRIRGRPPRLPRPRPRPQFSPRP, the “shrunken log2 fold change” value was determined as 0.0687.

Take RRIRKRPPRLPRPRPRPDVMPRP: the “shrunken log2 fold change” value was -0.0462.

For the sequence RRIRTRPPRLPRPRPRPVFKPRP, the “shrunken log2 fold change” value came to 0.0882.

Consider RRIRMRPPRLPRPRPRPPVRPRP, for which the “shrunken log2 fold change” value is 0.458.

Regarding RRIRERPPRLPRPRPRPDTWPRP, the “shrunken log2 fold change” value was -0.295.

With RRIRGRPPRLPRPRPRPCKHPRP, the “shrunken log2 fold change” value was found to be 0.112.

Turning to RRIRMRPPRLPRPRPRPLVWPRP, the “shrunken log2 fold change” value came to 0.955.

Turning to RRIRCRPPRLPRPRPRPCLKPRP, the “shrunken log2 fold change” value was -0.277.

On to RRIRPRPPRLPRPRPRPVLPPRP, for which the “shrunken log2 fold change” value stood at 0.11.

For RRIRSRPPRLPRPRPRPEDPPRP, the “shrunken log2 fold change” value came to 0.931.

Turning to RRIRCRPPRLPRPRPRPTVYPRP, the “shrunken log2 fold change” value is -0.915.

Turning to RRIRCRPPRLPRPRPRPQNTPRP, the “shrunken log2 fold change” value is -0.691.

As for RRIRRRPPRLPRPRPRPIVKPRP, the “shrunken log2 fold change” value is -0.0348.

With RRIRMRPPRLPRPRPRPGCCPRP, the “shrunken log2 fold change” value came out at 1.36.

In the case of RRIRVRPPRLPRPRPRPDGEPRP, the “shrunken log2 fold change” value was 0.487.

Take RRIRQRPPRLPRPRPRPWLPPRP: the “shrunken log2 fold change” value was -0.181.

On to RRIRWRPPRLPRPRPRPDCNPRP, for which the “shrunken log2 fold change” value was -0.0173.

RRIRTRPPRLPRPRPRPANVPRP: the “shrunken log2 fold change” value was -0.0276.

Take RRIRARPPRLPRPRPRPCCTPRP: the “shrunken log2 fold change” value is 0.485.

Regarding RRIRARPPRLPRPRPRPTCWPRP, the “shrunken log2 fold change” value was determined as 0.651.

As for RRIRIRPPRLPRPRPRPACHPRP, the “shrunken log2 fold change” value is -0.12.

For the sequence RRIRTRPPRLPRPRPRPEIKPRP, the “shrunken log2 fold change” value is -0.0117.

Take RRIRGRPPRLPRPRPRPSYMPRP: the “shrunken log2 fold change” value was -0.0696.

In the case of RRIRGRPPRLPRPRPRPKILPRP, the “shrunken log2 fold change” value came to 0.229.

For RRIRDRPPRLPRPRPRPFTHPRP, the “shrunken log2 fold change” value was -0.0968.

For RRIRLRPPRLPRPRPRPSKKPRP, the “shrunken log2 fold change” value was -0.0524.

RRIRDRPPRLPRPRPRPPVNPRP: the “shrunken log2 fold change” value came out at 0.519.

Turning to RRIRSRPPRLPRPRPRPYGTPRP, the “shrunken log2 fold change” value is -0.196.

With RRIRERPPRLPRPRPRPRPGPRP, the “shrunken log2 fold change” value came to 0.464.

As to RRIRQRPPRLPRPRPRPREYPRP, the “shrunken log2 fold change” value was -0.0403.

For the sequence RRIRTRPPRLPRPRPRPIIGPRP, the “shrunken log2 fold change” value is 0.0211.

As for RRIRRRPPRLPRPRPRPMWPPRP, the “shrunken log2 fold change” value was 0.265.

As to RRIRWRPPRLPRPRPRPTNFPRP, the “shrunken log2 fold change” value was 0.0339.

As to RRIRVRPPRLPRPRPRPIIYPRP, the “shrunken log2 fold change” value is -0.475.

On to RRIRLRPPRLPRPRPRPVDYPRP, for which the “shrunken log2 fold change” value is -0.434.

RRIRCRPPRLPRPRPRPVIDPRP: the “shrunken log2 fold change” value was 0.136.

For RRIRLRPPRLPRPRPRPMDQPRP, the “shrunken log2 fold change” value was -0.0503.

RRIRLRPPRLPRPRPRPETGPRP: the “shrunken log2 fold change” value was -0.0316.

Take RRIRRRPPRLPRPRPRPDGLPRP: the “shrunken log2 fold change” value is 0.771.

As to RRIRCRPPRLPRPRPRPYEIPRP, the “shrunken log2 fold change” value was -0.00133.

With RRIRQRPPRLPRPRPRPTDDPRP, the “shrunken log2 fold change” value was -0.0703.

As for RRIRMRPPRLPRPRPRPDFKPRP, the “shrunken log2 fold change” value was -0.11.

For the sequence RRIRGRPPRLPRPRPRPRCQPRP, the “shrunken log2 fold change” value worked out at 0.835.

Consider RRIRVRPPRLPRPRPRPTIRPRP, for which the “shrunken log2 fold change” value was found to be 0.0315.

For the sequence RRIRPRPPRLPRPRPRPMKAPRP, the “shrunken log2 fold change” value is 0.0531.

As for RRIRGRPPRLPRPRPRPKEKPRP, the “shrunken log2 fold change” value was 0.0377.

As for RRIRIRPPRLPRPRPRPWQSPRP, the “shrunken log2 fold change” value is -0.0531.

In the case of RRIRFRPPRLPRPRPRPCAFPRP, the “shrunken log2 fold change” value was -0.393.

As to RRIRDRPPRLPRPRPRPYFKPRP, the “shrunken log2 fold change” value was -0.381.

Regarding RRIRKRPPRLPRPRPRPPTPPRP, the “shrunken log2 fold change” value is 0.796.

As for RRIRNRPPRLPRPRPRPYDQPRP, the “shrunken log2 fold change” value is -0.37.

In the case of RRIRYRPPRLPRPRPRPEMMPRP, the “shrunken log2 fold change” value is -0.0745.

RRIRDRPPRLPRPRPRPVNPPRP: the “shrunken log2 fold change” value was 0.342.

For the sequence RRIRGRPPRLPRPRPRPHWYPRP, the “shrunken log2 fold change” value is -0.0365.

Take RRIRRRPPRLPRPRPRPCIFPRP: the “shrunken log2 fold change” value was -0.0526.

On to RRIRIRPPRLPRPRPRPIVRPRP, for which the “shrunken log2 fold change” value is -0.339.

For RRIRMRPPRLPRPRPRPPYLPRP, the “shrunken log2 fold change” value is 0.204.

In the case of RRIRYRPPRLPRPRPRPNEHPRP, the “shrunken log2 fold change” value is -0.268.

As for RRIRDRPPRLPRPRPRPFWCPRP, the “shrunken log2 fold change” value was found to be 0.136.

Turning to RRIRKRPPRLPRPRPRPWYNPRP, the “shrunken log2 fold change” value is -0.00192.

For RRIRRRPPRLPRPRPRPVEGPRP, the “shrunken log2 fold change” value amounted to 0.268.

With RRIRQRPPRLPRPRPRPPDRPRP, the “shrunken log2 fold change” value is 0.0477.

Turning to RRIRERPPRLPRPRPRPMEAPRP, the “shrunken log2 fold change” value was -0.261.

Consider RRIRRRPPRLPRPRPRPRTKPRP, for which the “shrunken log2 fold change” value was 0.0753.

In the case of RRIRQRPPRLPRPRPRPFVWPRP, the “shrunken log2 fold change” value came out at 0.049.

On to RRIRNRPPRLPRPRPRPLLMPRP, for which the “shrunken log2 fold change” value was -0.421.

Consider RRIRKRPPRLPRPRPRPRNYPRP, for which the “shrunken log2 fold change” value was found to be 0.374.

Consider RRIRMRPPRLPRPRPRPRGKPRP, for which the “shrunken log2 fold change” value was determined as 0.97.

In the case of RRIRWRPPRLPRPRPRPTTNPRP, the “shrunken log2 fold change” value turned out to be 0.217.

For RRIRHRPPRLPRPRPRPNCRPRP, the “shrunken log2 fold change” value was -0.0986.

Turning to RRIRSRPPRLPRPRPRPQMFPRP, the “shrunken log2 fold change” value is -0.0871.

On to RRIRIRPPRLPRPRPRPPSCPRP, for which the “shrunken log2 fold change” value is -0.0736.

Take RRIRLRPPRLPRPRPRPRCKPRP: the “shrunken log2 fold change” value came to 0.0707.

For RRIRLRPPRLPRPRPRPFSHPRP, the “shrunken log2 fold change” value is -0.262.

On to RRIRTRPPRLPRPRPRPQFMPRP, for which the “shrunken log2 fold change” value is 0.0325.

RRIRGRPPRLPRPRPRPQRKPRP: the “shrunken log2 fold change” value worked out at 0.471.

As to RRIRARPPRLPRPRPRPQKQPRP, the “shrunken log2 fold change” value is -0.00111.

Turning to RRIRMRPPRLPRPRPRPILVPRP, the “shrunken log2 fold change” value came out at 0.133.

Consider RRIRQRPPRLPRPRPRPHRHPRP, for which the “shrunken log2 fold change” value was -0.284.

As to RRIRGRPPRLPRPRPRPWQDPRP, the “shrunken log2 fold change” value stood at 0.00455.

Regarding RRIRMRPPRLPRPRPRPFDQPRP, the “shrunken log2 fold change” value was determined as 0.00237.

As to RRIRIRPPRLPRPRPRPAKFPRP, the “shrunken log2 fold change” value was -0.158.

With RRIRTRPPRLPRPRPRPMIWPRP, the “shrunken log2 fold change” value was -0.0322.

On to RRIRRRPPRLPRPRPRPCKMPRP, for which the “shrunken log2 fold change” value is -0.0577.

As to RRIRMRPPRLPRPRPRPNIMPRP, the “shrunken log2 fold change” value was -0.466.

For the sequence RRIRYRPPRLPRPRPRPPICPRP, the “shrunken log2 fold change” value was -0.801.

Turning to RRIRLRPPRLPRPRPRPWAQPRP, the “shrunken log2 fold change” value came out at 0.249.

Turning to RRIRDRPPRLPRPRPRPGFLPRP, the “shrunken log2 fold change” value came to 0.368.

As to RRIRIRPPRLPRPRPRPGLEPRP, the “shrunken log2 fold change” value was -0.0336.

On to RRIRMRPPRLPRPRPRPYCAPRP, for which the “shrunken log2 fold change” value is -0.515.

Take RRIRYRPPRLPRPRPRPLADPRP: the “shrunken log2 fold change” value is -0.213.

RRIRMRPPRLPRPRPRPYPMPRP: the “shrunken log2 fold change” value is -0.126.

On to RRIRTRPPRLPRPRPRPYTDPRP, for which the “shrunken log2 fold change” value was -0.448.

As to RRIRKRPPRLPRPRPRPPQMPRP, the “shrunken log2 fold change” value came out at 0.278.

In the case of RRIRNRPPRLPRPRPRPWWYPRP, the “shrunken log2 fold change” value was -0.361.

RRIRARPPRLPRPRPRPKCYPRP: the “shrunken log2 fold change” value came out at 0.00925.

As for RRIRNRPPRLPRPRPRPDNRPRP, the “shrunken log2 fold change” value was -0.0135.

In the case of RRIRIRPPRLPRPRPRPKEIPRP, the “shrunken log2 fold change” value is -0.113.

For the sequence RRIRVRPPRLPRPRPRPNVAPRP, the “shrunken log2 fold change” value came out at 0.177.

With RRIRRRPPRLPRPRPRPKCWPRP, the “shrunken log2 fold change” value amounted to 0.307.

For RRIRVRPPRLPRPRPRPFNVPRP, the “shrunken log2 fold change” value was -0.185.

Consider RRIRYRPPRLPRPRPRPITNPRP, for which the “shrunken log2 fold change” value is -0.544.

Regarding RRIRSRPPRLPRPRPRPKFKPRP, the “shrunken log2 fold change” value is -0.121.

RRIRTRPPRLPRPRPRPEPEPRP: the “shrunken log2 fold change” value came to 0.323.

Regarding RRIRDRPPRLPRPRPRPPLWPRP, the “shrunken log2 fold change” value was determined as 0.228.

Turning to RRIRVRPPRLPRPRPRPSSVPRP, the “shrunken log2 fold change” value was -0.529.

For RRIRTRPPRLPRPRPRPLTIPRP, the “shrunken log2 fold change” value was -0.315.

In the case of RRIRFRPPRLPRPRPRPHLMPRP, the “shrunken log2 fold change” value was -0.149.

RRIRRRPPRLPRPRPRPFGWPRP: the “shrunken log2 fold change” value worked out at 0.271.

Take RRIRQRPPRLPRPRPRPFRNPRP: the “shrunken log2 fold change” value worked out at 0.033.

With RRIRMRPPRLPRPRPRPMWGPRP, the “shrunken log2 fold change” value was 0.285.

In the case of RRIRMRPPRLPRPRPRPKTMPRP, the “shrunken log2 fold change” value is -0.0578.

For RRIRKRPPRLPRPRPRPNCYPRP, the “shrunken log2 fold change” value was -0.08.

RRIRSRPPRLPRPRPRPCTAPRP: the “shrunken log2 fold change” value was -0.231.

With RRIRYRPPRLPRPRPRPGSHPRP, the “shrunken log2 fold change” value was -1.48.

In the case of RRIRRRPPRLPRPRPRPAQKPRP, the “shrunken log2 fold change” value came out at 0.547.

With RRIRRRPPRLPRPRPRPVLQPRP, the “shrunken log2 fold change” value came to 0.0941.

Take RRIRCRPPRLPRPRPRPGPCPRP: the “shrunken log2 fold change” value is 0.0993.
